Laboratory results as given in paper PMC1978536, “MVB-12, a Fourth Subunit of Metazoan ESCRT-I, Functions in Receptor Downregulation” (PLoS ONE, 2007).

B1: VPS-28 (recombinant C. elegans) (natural protein, UniProt Q9NA26 1-210, looked up)
chain: MSSQNANLMREVRLFENHSEREQMENLSELFAVLNALEHLEKMFSRDHVSADEYKSECFKLIDQYKVTMRLVHGATSIEDFAKKYRLHCPAAIERIREGRPITVKDDQGNVLKHIASIVEQFITFLDALRLNTRAVDDLYPGLDDLYNAINTTSRVPIDAIVTTKVKKWHDRLSSMAASDEISDEDARQMIFDVESAYQAFNKALNELKH
notes: VPS-28, C. elegans; open reading frame amplified from N2 cDNA
B2: VPS-37 (recombinant C. elegans) (natural protein, UniProt O44158 1-234, looked up)
chain: MFSQNPYESHVDVAVSAASANLRNMTNEQLISLLDDDALLESIIVNLPQVRSMPTDKESALAANKSLAEWNLAQKPRIDAAKTQTVDLYDQVKKLQGEVAVLKSQLDSVSSSKSLDTTSSLMQVAAQEADDDAEALFTQFENGEISVEIFLKQFKDKKTIAHLRKIKSDRLAALLREQTYSSYAQPTVPPPMPHAQPGYPTGNHMPGIGNIQFGSGYSGYPNISQPSAGRHPFF
notes: VPS-37 (CD4.4), C. elegans; open reading frame amplified from N2 cDNA
B3: MVB-12 (recombinant C. elegans) (natural protein, UniProt Q17687 1-277, looked up)
chain: MTELEFSADNAAPVIPITAICIVADKNKAPRGFLPIIKCQDDQTEADLWRDGFFTINRQVRYICTSTEIPDSNIKTPVQVITNLIIVRESDPIPHGYVAIDYTADSREKSLRKKYVCIRTEPRDRVVDAIGEIIILGKTKKVPRDYTSAGDIDSLLICYKVISIPQTYGIQTSNSTSNIESQAAGGLYPGLPNLSNSTPANLDVTGSSSNSAFTMKNAGAPRVKAIDGIDFKVNPMFVNSSGSNNSSQLPDLSQFNDLDRLDDKYNYSYATEHAVLS
notes: MVB-12 (C06A6.3), C. elegans; open reading frame amplified from N2 cDNA; 277 amino acids as printed

Tests used:
[1] = biological target: TSG-101 (C. elegans, endogenous) (C. elegans (endogenous in embryos)); experiment: SEC + other: sucrose density gradient sedimentation; C. elegans embryo extracts desalted into 50 mM Na phosphate pH 7.0, 250 mM NaCl, 1 mM EDTA, 1 mM beta-mercaptoethanol; Superose 6 and 5-20% sucrose gradient; fractions blotted for TSG-101 and MVB-12
[2] = biological target: T1, TSG-101:6xHIS (recombinant C. elegans TSG-101) (C. elegans, UniProt O76258 1-425); experiment: SEC + other: sucrose density gradient sedimentation; TSG-101:6xHIS, VPS-28 and VPS-37 co-expressed in E. coli, purified on nickel resin; Superose 6 in 50 mM Na phosphate pH 7.0, 250 mM NaCl, 1 mM EDTA, 1 mM beta-mercaptoethanol; 5-20% sucrose gradient; Stokes radius and S-value combined to a native molecular weight; settings: both partners purified
T1 construct: open reading frame amplified from N2 cDNA; source: E. coli BL21 (DE3), co-expressed from a polycistronic vector, purified (Ni-NTA, Superose 6); not shown: 6xHis, C-terminal, kept
T1 sequence (looked up): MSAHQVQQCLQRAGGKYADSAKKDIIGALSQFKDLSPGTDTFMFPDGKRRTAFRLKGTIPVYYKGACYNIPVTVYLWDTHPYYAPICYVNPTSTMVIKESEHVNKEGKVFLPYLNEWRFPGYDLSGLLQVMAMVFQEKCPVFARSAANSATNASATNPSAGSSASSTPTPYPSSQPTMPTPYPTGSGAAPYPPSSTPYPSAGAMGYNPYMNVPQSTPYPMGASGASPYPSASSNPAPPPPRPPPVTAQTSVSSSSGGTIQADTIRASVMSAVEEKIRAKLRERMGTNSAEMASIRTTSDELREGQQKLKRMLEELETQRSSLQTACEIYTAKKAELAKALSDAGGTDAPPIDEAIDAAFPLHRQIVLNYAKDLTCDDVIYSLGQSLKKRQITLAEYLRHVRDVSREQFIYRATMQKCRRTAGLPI

[3] = biological target: T1, TSG-101:6xHIS (recombinant C. elegans …); experiment: SEC + other: sucrose density gradient sedimentation; TSG-101:6xHIS, VPS-28, VPS-37 and MVB-12 co-expressed in E. coli, purified on nickel resin; Superose 6 in 50 mM Na phosphate pH 7.0, 250 mM NaCl, 1 mM EDTA, 1 mM beta-mercaptoethanol; 5-20% sucrose gradient; Stokes radius and S-value combined to a native molecular weight; settings: both partners purified

Molecule	stoichiometry N [2]	also measured
MVB-12 (C. elegans, endogenous) (from UniProt Q17687 1-277) (natural protein)	–	stoichiometry N [1]: 1
B1	1	–
B2	1	–
B3	–	stoichiometry N [3]: 1
